T1: purified S. aureus β-clamp (ITC sample) (S. aureus, UniProt P0A024 1-377)
T1 sequence: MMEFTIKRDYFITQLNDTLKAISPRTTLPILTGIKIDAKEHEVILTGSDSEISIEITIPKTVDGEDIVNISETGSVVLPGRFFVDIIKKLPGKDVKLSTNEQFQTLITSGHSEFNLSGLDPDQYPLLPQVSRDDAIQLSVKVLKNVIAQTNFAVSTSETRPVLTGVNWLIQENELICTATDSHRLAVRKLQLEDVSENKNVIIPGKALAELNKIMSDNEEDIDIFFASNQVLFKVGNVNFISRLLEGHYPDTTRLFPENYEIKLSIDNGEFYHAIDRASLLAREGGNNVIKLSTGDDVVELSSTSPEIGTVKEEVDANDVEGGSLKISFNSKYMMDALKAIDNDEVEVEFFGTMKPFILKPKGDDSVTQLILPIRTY


Tests used:
[1] = biological target: the molecule itself; experiment: SEC-MALS
[2] = biological target: the molecule itself; experiment: cryo-EM structure
[3] = biological target: T1, purified S. aureus β-clamp (ITC sample); experiment: ITC
[4] = biological target: the molecule itself; experiment: SEC

Binder | stoichiometry N [1] | stoichiometry N [2] | Kd [3] | stoichiometry N [3] | stoichiometry N [4]
polyhistidine-tagged Gp168 of bacteriophage Twort (natural protein) MLFFKEKFYNELSYYRGGHKDLESMFELALEYIEKLEEEDEQQVTDYENAMEEELRDAVDVIESQLEIIKDIVR | 6 | 2 | 95 ± 16.7 nM | 0.16 ± 0.003 | 
polyhistidine-tagged Gp168 Y14A (natural protein, bacteriophage Twort) MLFFKEKFYNELSAYRGGHKDLESMFELALEYIEKLEEEDEQQVTDYENAMEEELRDAVDVIESQLEIIKDIVR |  |  |  |  | 6
